From EP2814500B1

Target: mouse glycophorin-A (GYPA) on the mouse erythrocyte surface (mouse) (UniProt P14220)
Assay: equilibrium binding to mouse erythrocytes, flow cytometry, one-site binding fit

Sequence of ERY1-OVA (ovalbumin chemically conjugated with ERY1 peptide through SMCC) (P01012 2-386, form in doubt): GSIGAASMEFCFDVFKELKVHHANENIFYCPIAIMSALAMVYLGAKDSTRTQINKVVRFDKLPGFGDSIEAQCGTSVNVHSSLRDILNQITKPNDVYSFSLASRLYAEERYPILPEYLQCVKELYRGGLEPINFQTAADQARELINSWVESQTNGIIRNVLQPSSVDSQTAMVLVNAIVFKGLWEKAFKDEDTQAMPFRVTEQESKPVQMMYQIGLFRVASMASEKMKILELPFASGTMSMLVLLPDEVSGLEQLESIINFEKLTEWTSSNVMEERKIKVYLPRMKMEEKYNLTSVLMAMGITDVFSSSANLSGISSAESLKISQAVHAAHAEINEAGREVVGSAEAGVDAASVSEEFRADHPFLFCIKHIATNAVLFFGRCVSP

- Kd: 6.2 nM
Substance: ERY1-OVA (ovalbumin chemically conjugated with ERY1 peptide through SMCC) (from UniProt P01012 2-386)
